± gives the uncertainty stated by the source.
Test: protein stability index of a GFP-peptide fusion (yeast GPS) (PSI 1-4); higher = more stable; sorted into four equal gates, so the index is relative within each strain
Outline: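 Mid-log yeast cultures in leucine-free medium, carrying a pooled plasmid library, were sorted into four equal gates by their GFP/Cherry fluorescence ratio. Each plasmid expressed Cherry along with GFP fused upstream of a tiled 17-residue yeast protein peptide. Plasmids recovered from each gate were PCR-amplified and Illumina-sequenced, with reads assigned to strains by barcodes. The protein stability index was obtained by summing each gate's read frequency weighted by its gate number.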

Row | Sequence | protein stability index (doa10∆) | protein stability index (pdr5∆) | protein stability index (san1∆) | protein stability index (ubr1∆)
1 | IAHENEQKWLIYDKKDH [SRB8] | 2.88 ± 0.13 | 2.83 ± 0.093 | 2.77 ± 0.17 | 2.8 ± 0.071
2 | IAHNISAKNRVVILARA [RPL32] | 1.66 ± 0.043 | 1.71 ± 0.058 | 1.76 ± 0.085 | 1.52 ± 0.043
3 | IAKSRYWYFLQKLHKVK [RPL20A] | 3.06 ± 0.11 | 3.06 ± 0.087 | 2.79 ± 0.075 | 3.03 ± 0.084
4 | IALEGYRLDIIESALKS [RPN2] |  | 1.49 ± 0.15 |  | 1.25 ± 0.15
5 | IAPRRKRLADGLSVTQK [DIS3] | 3.38 ± 0.088 | 3.3 ± 0.074 | 3.16 ± 0.068 | 3.1 ± 0.061
6 | IAQSKKKNNKIKESSKK [SRP21] | 3.09 ± 0.1 | 2.96 ± 0.087 | 3.01 ± 0.072 | 3.16 ± 0.063
7 | IASMSTVRASSLQDLIY [SMC2] | 1.92 ± 0.069 | 2.33 ± 0.1 | 2.53 ± 0.092 | 2.25 ± 0.037
8 | IAYGASQLLLERLMISS [RET1] | 1.75 ± 0.092 | 1.94 ± 0.073 | 2 ± 0.16 | 1.39 ± 0.069
9 | ICQIISSTITGDVVLAA [RPL5] | 2.84 ± 0.063 | 1.89 ± 0.058 | 2.31 ± 0.069 | 3.06 ± 0.099
10 | IDDRDYVGNKRLELAGQ [RET1] | 3.22 ± 0.15 | 3.47 ± 0.11 | 3.05 ± 0.12 | 3.58 ± 0.13
11 | IDEPIKSIMDGIHDGHI [FAS1] | 1.97 ± 0.044 | 1.87 ± 0.059 | 1.52 ± 0.094 | 1.57 ± 0.038
12 | IDFTLLNRLLRLIVDPN [PRP8] | 1.85 ± 0.059 | 1.88 ± 0.058 | 1.84 ± 0.071 | 1.73 ± 0.051
13 | IDGCVKIGDLGLARKFH [SSN3] | 2.98 ± 0.078 | 3.33 ± 0.08 | 3.14 ± 0.058 | 3.37 ± 0.043
14 | IDIQTQDLNQRFQDPYV [RRI1] |  | 2.86 ± 0.18 | 2.28 ± 0.22 | 
15 | IDLDHKRFLILQGEVEN [SMC4] | 1.58 ± 0.073 | 2.09 ± 0.087 | 1.81 ± 0.09 | 2.46 ± 0.057
16 | IDLLLLGQERATDLAGP [PRP8] | 2.47 ± 0.047 | 2.58 ± 0.083 | 2.34 ± 0.087 | 2.29 ± 0.05
17 | IDMLPMLLGTDLCSLKP [DIS3] | 2.74 ± 0.066 | 2.71 ± 0.065 | 2.69 ± 0.07 | 2.45 ± 0.057
18 | IDQVNELVTISWVQPRI [RPN9] | 3.33 ± 0.069 | 3.28 ± 0.069 | 3.22 ± 0.045 | 3.15 ± 0.067
19 | IDSFFLYVLPSFNIPRL [YMR129W/POM152] | 1.77 ± 0.05 | 1.57 ± 0.038 | 1.64 ± 0.093 | 1.26 ± 0.031
20 | IDSTDHIRKASSKKSKR [LRP1] | 2.15 ± 0.046 | 1.99 ± 0.039 | 1.83 ± 0.058 | 2.14 ± 0.038
21 | IDYALTAVKQGVTSLGI [PRE8] | 2.27 ± 0.072 | 2.07 ± 0.056 | 1.93 ± 0.071 | 1.62 ± 0.085
22 | IEDVTPVPSDSTRKKGG [RPS14B] | 2.99 ± 0.039 | 3.15 ± 0.045 | 2.96 ± 0.051 | 3.03 ± 0.04
23 | IEEHPTVVDAIDNSDEI [IRR1] | 3.35 ± 0.13 | 3.12 ± 0.076 | 3.38 ± 0.069 | 3.1 ± 0.06
24 | IEEIEYNVKNIIQGRKN [PCI8] | 2.38 ± 0.059 | 2.18 ± 0.052 | 2.39 ± 0.095 | 1.76 ± 0.042
25 | IEHNLRVISEYYSRITL [RPN5] | 2.63 ± 0.087 | 2.54 ± 0.078 | 2.41 ± 0.063 | 2.46 ± 0.073
26 | IEKGSTFGINLIYVNPF [FAS1] | 2.58 ± 0.06 | 2.61 ± 0.068 | 2.71 ± 0.052 | 2.78 ± 0.04
27 | IEKSRLFSEKTIRYLMQ [SNF6] | 1.82 ± 0.069 | 2.29 ± 0.048 | 2.28 ± 0.084 | 1.86 ± 0.055

Row | Sequence | protein stability index (doa10∆) | protein stability index (pdr5∆) | protein stability index (san1∆) | protein stability index (ubr1∆)
28 | IEKWTANLLPARQFGYV [RPS22A] | 1.6 ± 0.075 | 1.92 ± 0.088 | 1.8 ± 0.15 | 2.14 ± 0.17
29 | IERYPLKVTKKHGAKKV [RPL27A] | 3.37 ± 0.092 | 3.6 ± 0.14 | 3.54 ± 0.087 | 3.23 ± 0.1
30 | IESIRSCKDSQLKWAQN [YIL149C/MLP2] | 2.78 ± 0.064 | 3.01 ± 0.069 | 2.75 ± 0.053 | 2.95 ± 0.053
31 | IEVTIGIDQYSFNVKEN [AAR2] | 2.67 ± 0.053 | 2.75 ± 0.05 | 2.58 ± 0.047 | 2.76 ± 0.056
32 | IFEISLQRKDYTSIVQC [YML103C/NUP188] | 1.76 ± 0.051 | 1.75 ± 0.048 | 2.05 ± 0.12 | 1.88 ± 0.052
33 | IFFNIPLVAHLGLYVGV [YJL039C/NUP192] | 1.42 ± 0.044 | 1.4 ± 0.059 | 1.27 ± 0.1 | 1.33 ± 0.048
34 | IFIATQLEKKIRFVCLS [BRR2] | 2.17 ± 0.2 | 1.86 ± 0.11 |  | 1.49 ± 0.074
35 | IFLKRKDFTNKNLIQLI [SRB8] | 1.31 ± 0.053 | 1.43 ± 0.041 | 1.28 ± 0.086 | 1.4 ± 0.041
36 | IFNSGKMIILDKLLKRL [ISW2] | 2.17 ± 0.077 | 1.93 ± 0.055 | 1.55 ± 0.1 | 2.17 ± 0.046
37 | IFSFHQDSIFQRIIADL [SRB8] | 2.49 ± 0.062 | 2.06 ± 0.072 | 2.24 ± 0.081 | 2.41 ± 0.035
38 | IFTCQIMNLITNEPCGA [RPN4] | 2.07 ± 0.087 | 2.61 ± 0.18 | 2.36 ± 0.21 | 
39 | IGEGAKLVRDAFALAKE [RPT5] | 3.51 ± 0.12 | 3.38 ± 0.14 | 3.3 ± 0.093 | 3.5 ± 0.11
40 | IGESARIIREMFAYAKE [RPT4] | 2.31 ± 0.065 | 2.29 ± 0.064 | 2.04 ± 0.063 | 1.75 ± 0.038
41 | IGFITSGTYHLNCGNGM [POP1] | 2.56 ± 0.1 | 2.93 ± 0.082 | 2.09 ± 0.093 | 2.92 ± 0.048
42 | IGLLNKSKSSLDGKFSL [RPN2] | 2.67 ± 0.089 | 2.85 ± 0.15 | 2.5 ± 0.14 | 2.74 ± 0.093
43 | IGQLIGEVMKELSEEKY [RPT4] | 3.27 ± 0.063 | 3.42 ± 0.076 | 3.44 ± 0.067 | 3.27 ± 0.042
44 | IGSTSKRPIESGTSSDP [YIL149C/MLP2] | 3.23 ± 0.087 | 3.22 ± 0.1 | 3.17 ± 0.11 | 3.36 ± 0.064
45 | IGTINSIVHINSQERVQ [SIR2] | 2.13 ± 0.037 | 2.16 ± 0.034 | 2.12 ± 0.05 | 1.95 ± 0.026
46 | IGTKRFDSEKSGDREVQ [RPT5] | 3.15 ± 0.19 | 3.51 ± 0.2 | 2.8 ± 0.26 | 3.41 ± 0.12
47 | IGVETGSEPLIQQVVEY [PRP28] | 2.99 ± 0.065 | 3.08 ± 0.084 | 2.95 ± 0.067 | 2.73 ± 0.16
48 | IHALAAKLLQENDTTLV [FAS1] | 2.53 ± 0.13 | 2.8 ± 0.14 | 2.86 ± 0.12 | 3.33 ± 0.18
49 | IHFADVAHITTKSPAYP [RGR1] | 2.42 ± 0.054 | 2.61 ± 0.055 | 2.55 ± 0.045 | 2.56 ± 0.033
50 | IHFREHQSELIIKQTVH [YMR129W/POM152] | 2.46 ± 0.072 | 2.85 ± 0.069 | 2.48 ± 0.097 | 2.21 ± 0.053
51 | IHIQSKENYPWELYTDF [POP3] | 2.99 ± 0.095 | 3.16 ± 0.12 | 2.69 ± 0.12 | 3.12 ± 0.075
52 | IHNTKLPAYSGEIGDFF [POP1] | 3.07 ± 0.06 | 3.1 ± 0.062 | 3.1 ± 0.047 | 3.02 ± 0.06
53 | IHQYLFQEGVVVAKKDF [RPS10A] | 2.29 ± 0.068 | 2.08 ± 0.071 | 1.93 ± 0.089 | 2.04 ± 0.085

— the supplement of paper PMC9732359
